{
  "source": "patent US20200247894A1",
  "binders": {"B1": {"name": "human IL-7 (ligand, UniProt P13232 26-177, looked up)", "chain": "DCDIEGKDGKQYESVLMVSIDQLLDSMKEIGSNCLNNEFNFFKRHICDANKEGMFLFRAARKLRQFLKMNSTGDFDLHLLKVSEGTTILLNCTGQVKGRKPAALGEAQPTKSLEENKSLKEQKKLNDLCFLKRLLQEIKTCWNKILMGTKEH"}, "B2": {"name": "H4H12899P (antibody, human IgG4 S228P, kappa, V domains shown)", "VH": "QVQLVESGGDLVKPGGSLRLSCATSGFTFSDFYMTWIRQAPGKGLEWISYISNSGSIVKYADSVKGRFTISRDNAKNSLYLQMNSLRAEDTAIYYCARFYGDRWGQGTLVTVSS", "VL": "DIQLTQSPSFLSASVGDRVTITCWASQGISTFLAWYQQKPGKAPKLLIYAASTLQSGVPSRFSGSGSGTDFTLTISSLQPEDFATYHCQQLNNYPWTFGQGTKVEIKR"}, "B3": {"name": "H4H12900P (antibody, human IgG4 S228P, kappa, V domains shown)", "VH": "QVQLVESGGGLVKPGGSLRLSCEASGFTFNDFYMTWIRQAPGKGLEWIAYISKSGDKMRYADSVKGRFSTSRDNAKNSLSLQMNSLRAEDTAVYYCARFYGDIWGQGTLVTVSS", "VL": "B2 VL with G28D, T31S, A34V, K45N, T53A, D70E, T85S, H87Y, Q89E"}},
  "key": {"[1]": {"molecular_target": "human IL2Rγ (endogenously expressed on cells) (human) (UniProt P31785)", "sequence (P31785 23-369)": "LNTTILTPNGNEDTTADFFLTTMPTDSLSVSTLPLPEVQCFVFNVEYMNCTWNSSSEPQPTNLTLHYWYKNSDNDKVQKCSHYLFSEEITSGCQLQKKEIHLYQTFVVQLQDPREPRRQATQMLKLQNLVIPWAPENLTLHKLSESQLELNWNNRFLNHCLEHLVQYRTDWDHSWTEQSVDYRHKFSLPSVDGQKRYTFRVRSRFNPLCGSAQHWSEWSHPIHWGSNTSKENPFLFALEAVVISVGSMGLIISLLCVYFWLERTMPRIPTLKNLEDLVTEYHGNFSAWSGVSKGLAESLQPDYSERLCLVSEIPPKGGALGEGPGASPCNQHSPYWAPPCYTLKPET", "test": "cell-based or functional assay"}, "[2]": {"molecular_target": "Human IL2Rγ extracellular domain expressed with a C-terminal mouse IgG2a Fc tag (human)", "sequence (chain, as listed by the source limits assumed)": "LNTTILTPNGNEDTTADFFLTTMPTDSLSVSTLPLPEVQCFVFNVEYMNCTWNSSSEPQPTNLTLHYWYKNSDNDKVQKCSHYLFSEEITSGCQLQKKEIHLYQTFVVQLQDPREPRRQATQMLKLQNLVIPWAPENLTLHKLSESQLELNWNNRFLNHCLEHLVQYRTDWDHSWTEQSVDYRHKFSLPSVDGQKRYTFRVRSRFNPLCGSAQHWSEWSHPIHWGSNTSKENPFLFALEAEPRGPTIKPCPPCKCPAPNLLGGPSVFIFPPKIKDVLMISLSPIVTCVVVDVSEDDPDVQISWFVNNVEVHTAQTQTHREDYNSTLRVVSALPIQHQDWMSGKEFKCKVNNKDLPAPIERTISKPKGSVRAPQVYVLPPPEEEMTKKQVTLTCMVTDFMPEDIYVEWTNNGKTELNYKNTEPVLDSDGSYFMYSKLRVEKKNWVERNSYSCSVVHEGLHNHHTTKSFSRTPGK", "test": "SPR Biacore 4000, anti-hFc-captured mAb, 37 C"}, "[3]": {"molecular_target": "Human IL2Rγ extracellular domain expressed with a C-terminal mouse IgG2a Fc tag (human)", "test": "SPR Biacore 4000, anti-hFc-captured mAb, 25 C"}},
  "note": "Where a chain is given by its changes, count along the chain named.",
  "data": [
    {"binder": "B1", "values": [
      {"measurement": "EC50; IL-7 dose response; NK92/hIL7R/STAT3-luc", "setting": "[1]", "result": 0.039, "unit": "nM"}
    ]},
    {"binder": "B2", "values": [
      {"measurement": "50 nM Ag Bound", "setting": "[2]", "result": 2, "unit": "RU"},
      {"measurement": "50 nM Ag Bound", "setting": "[3]", "result": 1, "unit": "RU"}
    ]},
    {"binder": "B3", "values": [
      {"measurement": "50 nM Ag Bound", "setting": "[2]", "result": 4, "unit": "RU"},
      {"measurement": "50 nM Ag Bound", "setting": "[3]", "result": 4, "unit": "RU"}
    ]}
  ]
}
